Measurements as given in patent US20260356929 (published 2026).
Where a chain is given by its changes, count along the chain named.

T1: human VEGF-A165b (human, UniProt P15692)
T1 chain: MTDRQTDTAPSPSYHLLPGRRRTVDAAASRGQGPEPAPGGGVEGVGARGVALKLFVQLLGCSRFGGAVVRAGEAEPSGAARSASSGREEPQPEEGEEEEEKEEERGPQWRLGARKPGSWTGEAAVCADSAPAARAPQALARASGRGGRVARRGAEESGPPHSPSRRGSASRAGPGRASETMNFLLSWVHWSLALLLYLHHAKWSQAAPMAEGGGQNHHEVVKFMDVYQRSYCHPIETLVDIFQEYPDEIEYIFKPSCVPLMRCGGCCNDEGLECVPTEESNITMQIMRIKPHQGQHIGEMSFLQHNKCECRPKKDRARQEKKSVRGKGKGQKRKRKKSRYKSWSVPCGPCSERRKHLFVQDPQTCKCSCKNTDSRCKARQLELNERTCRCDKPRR

B1: HC3 LC1 (antibody, V domains shown)
VH: EVQLVESGGGLVQPGGSLRLSCAASGFDFSRYWMSWVRQAPGKGLEWISEIHPYSSTINYTPSVKDRFTISRDNAKNSLYLQMNSLRDEDTALYYCARAFAYWGQGTLVTVSS
VL: DVVMTQSPLSLPVTLGQPASISCKSSQSLLDSDGKTYLNWFQQRPGQSPRRLIYLVSKLDSGVPDRFSGSGSGTDFTLKISRVEAEDVGVYYCWQGTHFPYTFGGGTKVEIKR
B2: HC5 LC2 (antibody, V domains shown)
VH: B1 VH with I48V, D88A, L93V, S113A
VL: B1 VL with K24R, F41E, Q42L, G105Q
B3: HC4 LC2 (Vexobicizumab) (antibody, V domains shown)
VH: B1 VH with I48V, S49A, D88S, L93V
VL: B1 VL with K24R, F41E, Q42L, G105Q
B4: HC5 LC1 (antibody, V domains shown)
VH: B1 VH with I48V, D88A, L93V, S113A
VL: B1 VL
B5: HC2 LC1 (antibody, V domains shown)
VH: B1 VH with I48V, S49A, T69I, L79V, M83L, D88A, L93V
VL: B1 VL
B6: HC2 LC2 (antibody, V domains shown)
VH: B1 VH with I48V, S49A, T69I, L79V, M83L, D88A, L93V
VL: B1 VL with K24R, F41E, Q42L, G105Q
B7: HC3 LC2 (antibody, V domains shown)
VH: B1 VH
VL: B1 VL with K24R, F41E, Q42L, G105Q
B8: HC1 LC2 (antibody, V domains shown)
VH: B1 VH with V5L, Q13K, V37I, I48V, D88A, L93V
VL: B1 VL with K24R, F41E, Q42L, G105Q
B9: HC4 LC1 (antibody, V domains shown)
VH: B1 VH with I48V, S49A, D88S, L93V
VL: B1 VL
B10: HC1 LC1 (antibody, V domains shown)
VH: B1 VH with V5L, Q13K, V37I, I48V, D88A, L93V
VL: B1 VL
B11: HC0 LC0 (chimeric Ab 1126) (antibody, V domains shown)
VH: EVKLLESGGGLVQPGGSLKLSCAASGFDFSRYWMSWVRQAPGKGLEWIGEIHPYSSTINYTPSVKDKFIISRDNAKNTLYLQMSEVRSEDTALYYCARAFAYWGQGTLVTVSA
VL: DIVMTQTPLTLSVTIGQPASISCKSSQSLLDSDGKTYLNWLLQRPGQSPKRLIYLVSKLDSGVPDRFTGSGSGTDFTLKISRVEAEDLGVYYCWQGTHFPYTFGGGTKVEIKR

Biological target: T1, human VEGF-A165b
Assay: BLI 25C

**Q.** How did the Kd turn out when B1 was run?
**A.** 1.5 nM

**Q.** Which Kd does the source give for B2 here?
**A.** 0.6 nM

**Q.** B3 was tested. Which Kd did it give?
**A.** 0.6 nM

**Q.** How did the Kd turn out when B4 was run?
**A.** 3.2 nM

**Q.** How did the Kd turn out when B5 was run?
**A.** 4.4 nM

**Q.** Which Kd does the source give for B6 here?
**A.** 3.6 nM

**Q.** How did the Kd turn out when B7 was run?
**A.** 1.17 nM

**Q.** For B8, which Kd is on record?
**A.** 2.1 nM

**Q.** For B9, which Kd is on record?
**A.** 0.9 nM

**Q.** For B10, which Kd is on record?
**A.** 5 nM

**Q.** With B11 as the binder, how does the Kd read?
**A.** 0.3 nM
